# Experimental data from patent US8343490B2, “Monoclonal antibody SC104 and derivative thereof specifically binding to a sialyltetraosyl carbohydrate as a potential anti-tumor therapeutic agent” (Cephalon Australia Pty Ltd, priority 2004, dated 2013).
# Several values for one entry are separate records, joined by “and”; a condition that tells them apart may be missing. Equal entries are not always repeated. Where two headings read alike, the source gives them in different places.
# Key:
# [1] = system: C170 cells; experiment: C170 cell ELISA (hybridoma screening); assay type: binding
# Procedure: ELISA. Antibody responses in the serum of immunised mice were assayed by titration using a standard non-competitive ELISA procedure. 96-well tissue culture plates were coated with C170 cells at a cell density of 5×10^5 cells/ml (100 μl/well) in 10% foetal bovine serum in RPMI 1640. The plates were incubated overnight at 37° C., 5% CO2, 95% air. The cells were then washed twice in phosphate buffered saline (pH7.3, PBS) prior to being fixed with 0.5% glutaraldehyde in PBS (10 min, 25° C., 100 μl/well). Remaining non-specific binding sites were blocked by incubation for 1 hr with 1% bovine serum albumin (fraction V from Sigma Chemicals Ltd.) in PBS. The cells were washed three times with a washing solution consisting of 0.05% Tween 20 in phosphate buffered saline before assaying post-boost serum for binding to C170 cells using a non-competitive sandwich ELISA. The pre-immunisation serum was used as a negative control. • Immunohistochemistry. Binding of hybridoma supernatants to tumour tissues was determined by indirect immunoperoxidase staining of frozen colorectal tumour sections. […] The bound antibody was detected with rabbit anti-mouse Ig conjugated to peroxidase (Dako Ltd., Bucks., UK) and following extensive washing the slides were stained with 0.05% diaminobenzidine and 0.01% H2O2 in 0.05M Tris-HCl, pH7.6 and counterstained with haematoxylin. […]
# [2] = system: frozen tumour tissue sections; experiment: Immunohistochemistry staining of frozen tumour tissue sections; assay type: binding, Human
# Procedure: • Immunohistochemistry staining of normal and tumour tissues. Human tissues were obtained from an Inveresk approved supplier. Each tissue used was snap frozen in liquid nitrogen and stored at approximately −70° C. (±10° C.). Cryostat sections were cut and placed onto super frost plus slides. All tissue samples were treated with an antigen marker appropriate for each tissue in order to confirm the preservation of antigens in that tissue. The markers used were keratin for epithelial bearing tissues, CD45 for all lymphoid tissues, and desmin for all cardiac and skeletal muscle. Each tissue was examined from three unrelated donors. The method of staining employed was an indirect, 2 or 3-stage method, using secondary and tertiary antibodies together with an avidin-biotin-peroxidase complex. Endogenous peroxidase activity was blocked using hydrogen peroxide. Endogenous biotin was blocked by treating all tissue sections with a sequence of avidin-biotin. When a tertiary antibody was used, all tissue sections were treated with normal swine serum, which inhibits the binding of tertiary antibodies to the tissues. Validation of the immunohistochemical staining method was determined by staining on positive control tissues, the absence on negative controls and the effect of fixation on staining of control tissues. SC104 was tested against 6 donors of colon tumour and one of heart at concentrations of […]. Tissues were fixed in either acetone or neutral buffered formalin. Two samples of colon tumour stained well enough for use as a positive control and there was no staining in heart. […] The lowest concentration of SC104 giving the maximum staining intensity was 1 μg/ml and this concentration was used for subsequent work. Results
# [3] = system: colorectal tumour extranuclear membranes; experiment: ELISA on extranuclear membranes of colorectal tumour; assay type: binding; conditions: one line per patient (1-7)
# Procedure: • Tumour and normal membrane extract binding. Extranuclear extractions of colorectal and normal colonic membranes were produced and binding of SC104 was assayed by ELISA. Results
# [4] = target: T1, CEA (Homo sapiens, UniProt P06731); experiment: ELISA on purified CEA; assay type: binding; conditions: FIG. 4
# T1 construct: from tissue
# T1 sequence (P06731 35-676): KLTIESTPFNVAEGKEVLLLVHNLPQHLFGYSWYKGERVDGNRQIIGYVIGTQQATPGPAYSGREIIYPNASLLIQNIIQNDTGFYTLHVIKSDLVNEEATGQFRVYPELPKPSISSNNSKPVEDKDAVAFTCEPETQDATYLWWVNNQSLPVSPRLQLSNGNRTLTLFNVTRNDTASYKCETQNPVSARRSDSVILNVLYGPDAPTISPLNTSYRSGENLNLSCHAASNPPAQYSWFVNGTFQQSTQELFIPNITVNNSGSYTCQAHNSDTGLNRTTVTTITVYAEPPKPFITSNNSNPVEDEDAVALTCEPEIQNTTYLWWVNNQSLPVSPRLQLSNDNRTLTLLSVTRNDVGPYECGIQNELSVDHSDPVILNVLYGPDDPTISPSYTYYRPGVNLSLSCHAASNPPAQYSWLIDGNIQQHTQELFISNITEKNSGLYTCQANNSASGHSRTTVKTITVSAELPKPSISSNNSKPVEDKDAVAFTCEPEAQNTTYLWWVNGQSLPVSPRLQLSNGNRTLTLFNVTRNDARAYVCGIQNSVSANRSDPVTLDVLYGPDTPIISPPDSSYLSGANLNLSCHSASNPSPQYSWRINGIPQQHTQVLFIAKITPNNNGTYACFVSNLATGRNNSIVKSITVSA
# Procedure: • Binding to purified antigen preparations. […] Binding of SC104 mab was assayed by ELISA as described above.
# [5] = system: SC104 antigen purified from sputum; experiment: Cross-reaction of antigen purified from sputum with antibodies; assay type: binding; conditions: FIG. 13
# Text: • SC104 antigen purification and characterisation. SC104 specific antigen was purified from sputum samples mixed in a 1:1 ratio with 0.1M pH 7.6 Tris 0.5% NP40. Briefly an immuno-affinity was produced cross linking SC104 S136A to Protein A Cl-6B sepharose using Dimethyl pimelimidate.2HCl as the covalent linker Results
# [6] = system: C170 xenografts; assay type: in vivo
# Procedure: Prevention model. The colorectal tumour cell line, C170 was maintained in serial passage in nude mice. For therapy the mice were sacrificed and the tumours excised. The tumour was finely minced and […] pieces were implanted, under anaesthetic, subcutaneously into 30 male mice which had been randomly allocated to 4 experimental groups.
# Mice were explanted with 3 mm^3 pieces of C170 xenografts. Groups of mice were treated with 5-FU/leucovorin (12.5 mg/Kg) by intravenous infusion on days 1, 3, 5, 7 and 28. On the same days mice were also injected intraperitonealy with 0.2 mg of SC104 mab. Control mice received either SC104 alone or control mouse IgG antibody with 5-FU/leucovorin. Tumour size was measured by callipers and tumour cross sectional area calculated on days 7, 9, 12, 14 and 16. Animals were weighed to assess the toxicity of treatment. At the termination of the experiment tumours were weighed to assess anti-tumour efficacy.
molecule,measurement,setting,value
"SC104: mouse IgG1 monoclonal antibody specific for a sialyltetraosyl carbohydrate, raised by immunisation with colorectal cancer cell lines (antibody, V domains shown) VH: DVQLQESGPDLVKPSQSLSLTCTVTGYSITSGYSWHWVRQFPGNKMEWMGHIHFSGRPTYNPSLSSRISITRDTSKNQFLLQLKFVTTEDTSTYFCARKGKGSDDGLNYWGQGISVTVSS VL: ENVLTQSPVIMSASPGEKVTMTCSASSSLSYIHWYQQKSRTSPKLWIYDTSNLASGVPGRFSGSGSGNSYSLTISSMEAEDVATYYCFQGSEYPLTFGGGTKLEMT",C170 ELISA (OD 405 nm),[1],0.301 OD 405 nm
same,Immunoreactivity with frozen tissue sections (binding),[2]; Tumours: Breast,3/6
same,Immunoreactivity with frozen tissue sections (binding),[2]; Tumours: Colon,8/8
same,Immunoreactivity with frozen tissue sections (binding),[2]; Tumours: Endometrial,2/2
same,Immunoreactivity with frozen tissue sections (binding),[2]; Tumours: Lung,0
same,Immunoreactivity with frozen tissue sections (binding),[2]; Tumours: Oesophageal,4/4
same,Immunoreactivity with frozen tissue sections (binding),[2]; Tumours: Ovary,0
same,Immunoreactivity with frozen tissue sections (binding),[2]; Tumours: Parotid,2/2
same,Immunoreactivity with frozen tissue sections (binding),[2]; Tumours: Prostate,0
same,Immunoreactivity with frozen tissue sections (binding),[2]; Tumours: Renal,0
same,Immunoreactivity with frozen tissue sections (binding),[2]; Tumours: Stomach,4/4
same,Immunoreactivity with frozen tissue sections (binding),[2]; Tumours: Testes,0/1
same,lowest concentration giving the maximum staining intensity,"[2]; colon tumour positive control, neutral buffered formalin",1 µg/mL
same,Binding of SC104 mab to extranuclear membranes: Colorectal Tumour,[3],0.221 and 0.278 and 0.196 and 0.281 and 0.102 and 0.001 and 0.437
same,staining of CEA by ELISA,[4],No significant staining
same,cross-reaction with antigen purified from sputum,[5],cross-react
same,survival of mice,"[6]; Log Rank, FIG. 26b",significant improvement of survival
same,inhibition of tumour growth of freshly explanted tumours,"[6]; SC104 200 μg/dose ip, 5-FU/leucovorin at maximum tolerated dose, FIG. 26a",50%
same,inhibition of tumour growth,[6]; day 9,32%
same,inhibition of tumour growth,[6]; day 12,44%
same,inhibition of tumour growth,[6]; day 14,54%
same,inhibition of tumour growth,[6]; day 16,62%
